Measured values reported in the supplement of paper PMC9170038.

Test system: MS2 coat protein
Assay: apparent KD of MS2 coat protein; designed switch direction (-1 OFF switch, 1 ON switch): 1; higher = weaker reporter binding
Outline: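 Designed RNA switches with common flanks were transcribed on Illumina chips by stalled E. coli RNA polymerase and titrated with SNAP-549-labelled MS2 coat protein, from 0.7 or 1.5 nM doubling to 3 µM, in Tris-HCl pH 7.5 buffer with KCl, MgCl2, BSA, DTT, tRNA and Tween-20. Steps lasted 0.8–1.5 h (lowest) to 10–20 min (highest). Titrations ran without input, with 200 uM small-molecule ligand, or with an oligonucleotide input. Normalised cluster fluorescence was curve-fitted, and apparent KD is the per-design median over clusters.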

[1] = Eterna round: R95, input ligand: FMN 200 uM
[2] = Eterna round: R95, input ligand: microRNA oligo, concentration not stated
[3] = Eterna round: R95, input ligand: none
[4] = input ligand: microRNA oligo, concentration not stated

| Sequence | apparent KD of MS2 coat protein [1] | apparent KD of MS2 coat protein [2] | apparent KD of MS2 coat protein [3] | apparent KD of MS2 coat protein (input ligand: FMN 200 uM) | apparent KD of MS2 coat protein [4] | apparent KD of MS2 coat protein (input ligand: none) |
| --- | --- | --- | --- | --- | --- | --- |
| CAGCGCUGUUGAGAGGAUAUGCGGUGAUGGACAUGAGGAUCACCCAUGUUAGCGACAGCAUUACGGUAGAAGGCUUCACAGCUGC [Soteed Omei mod 16] (puzzle: Same State 2) | 38.9 nM | 126 nM | 235 nM | – | – | – |
| CAGUGCUGUCGAGAGGAUAUGCGGUGAUGGACAUGAGGAUCACCCAUGUUAGCGACAGCGUCACGGCAGAAGGCUCUACCCACUG [Soteed Omei mod 46] (puzzle: Same State 2) | 11.7 nM | 15.3 nM | 18.2 nM | – | – | – |
| CCAACAUACAAUUUAAGAUCACAUGAGGAUCACCCAUGUAUGCAGGAUAUCAGCUCGUGUAGAGCUGAGAAGGGCAAUUUAAUU [SSNG3/1-A4] (Eterna round: R96, puzzle: Same State NG 3) | – | – | – | 103 nM | 193 nM | 265 nM |
| CCAACGUACAAUUUAGAUCUACAUGAGGAUCACCCAUGUACGGAGGAUAUCAGCUCGUGUAGAGCUGAGAAGGCCGAAUUAAUU [SSNG3/2-A4] (Eterna round: R96, puzzle: Same State NG 3) | – | – | – | 88 nM | 298 nM | 465 nM |
| CCAACGUACAAUUUAGAUCUACAUGAGGAUCACCCAUGUACGGAGGAUAUCAGCUCGUUUAGAGCUGAGAAGGCCGAAUUAAUU [SSNG3/2-A3] (Eterna round: R96, puzzle: Same State NG 3) | – | – | – | – | 238 nM | – |
| CCAAUGUACAAUUUAGAUCUACAUGAGGAUCACCCAUGUACAGAGGAUAUCAGCUCGAUUAGAGCUGAGAAGGCUGAAUUAAUU [SSNG3/3-A2] (Eterna round: R96, puzzle: Same State NG 3) | – | – | – | 137 nM | 135 nM | 266 nM |
| CCAGCAUCACGAGGAUAUGGAGGUUCCCGAAAGACAUGAGGAUCACCCAUGUAUGUACGCCGCCUUCAGAAGGUGUAUAAGCGA [Eternabot solution 31] (Eterna round: R96, puzzle: Same State NG 2) | – | – | – | 65.7 nM | 38.2 nM | 58.7 nM |
| CCAUAGUACAAUUUAGAUCUACAUGAGGAUCACCCAUGUACUGAGGAUAUCAGCUCGAUUAGAGCUGAGAAGGCAGAAUUAAUU [SSNG3/5-A2] (Eterna round: R96, puzzle: Same State NG 3) | – | – | – | 58.4 nM | 96.8 nM | 122 nM |
| CCCAGCGUUACAGGAUAUGGUGAGGAUCACCCACUAGAAGGGUAAACAUGUGCGUCGGACAUGAGGAUCACCCAUGUAGGGCGU (Eterna round: R96, puzzle: Same State NG 1) | – | – | – | 20.6 nM | 17.9 nM | 27 nM |
| CCCAGGCAUGGAGGAUAUGGGAACAUGAGGAUCACCCAUGUUAACUCCGUAGGCGGCUUAAGGCACCAGAAGGCUACGGCUGGU [Eternabot solution 15] (Eterna round: R96, puzzle: Same State NG 2) | – | – | – | 112 nM | 67.8 nM | 83 nM |
| CCGAAAGGAGUAGGAUAUGUAGGAUAUUCCUACAUGAGGAUCACCCAUGUUCGCAUGGAAGAAGGACAGAAGGACACGGAAACG [pwkr ssNG2 2FMN + 1F5.14] (Eterna round: R96, puzzle: Same State NG 2) | – | – | – | 212 nM | 19 nM | 66.2 nM |
| CCGAUUUAUGGAGGAUAUGGAGCCUUAUUGGCUCCAGAAGGUCAAUACAUGAGGAUCACCCAUGUGUCGGCGGUCAAUAGACCG [Eli NG1ss - 72] (Eterna round: R96, puzzle: Same State NG 1) | – | – | – | 61.7 nM | 44.2 nM | 128 nM |
| CCGCGCUGUCGAGAGGAUAUGCGGUGAUGGACAUGAGGAUCACCCAUGUUAGCGAUAGCAUUACUGUAGAAGGCUCUACAGCGGC [JL-ss2-3.10 ViennaUCT mod] (puzzle: Same State 2) | 12.9 nM | 18.3 nM | 21.3 nM | – | – | – |
